These results are taken from patent US7071384B2, “Methods for commercial production of heterologous laccase in plant tissue and extraction of the laccase from plant seed” (Genencor International, Inc., priority 1997, dated 2006).

The nature of data set [1]: rGUS activity after extraction treatments (hexane defatting; SDS/ME buffer). Type of data set: physicochemical. The protocol: A portion of the germ sample prepared by the degermination process was defatted by using a Soxhlet apparatus. Forty grams of full-fat germ were extracted with 300 ml of hexane for five hours, and then air-dried at ambient temperature to remove the hexane.
All samples (flaked kernels, full-fat germ and defatted germ) were ground using a coffee grinder before protein extraction. The samples were extracted at 1:4 or 1:10 solid-to-liquid ratio with 50 mM NaPi buffer of pH 7.5. The extraction was carried out for 15 minutes at ambient temperature by using a magnetic stirrer for mixing less than 50-ml and a paddle mixer for greater than 50-ml volumes. After stirring, the suspension was centrifuged at 26,000 g for 25 min at 0° C., and then filtered through a 4-layer of cheesecloth. The extract was assayed for GUS activity (Hood et al., supra) and protein (Jefferson, R. A.; Wilson, K. J. (1991). In The GUS Gene Fusion system. In “Plant Molecular Biology Manual”, Vol. 1, B14, (S. B. Gelven, R. A. Schilperoort and D. P. S. Verma, eds.). Kluwer Academic Publisher, Dordrecht, Belgium. pp.1–33).
To determine whether a complete extraction of rGUS from corn kernels, full-fat germ and defatted germ was achieved, the remaining solids were stained with X-Gluc. […] The Western blot analysis of the spent solids confirmed the presence of unextracted rGUS. […]

Data set [2] can be described thus: rGUS specific activity after three-step chromatography purification. Format: biochemical. The text has this:
Distribution of rGUS in the Corn Kernel Tissue Corn kernels (100 g) were soaked in deionized water for two days. In two days separation of germ, hull and endosperm was completed and soaked for 2–3 days. The first half was soaked for 2 days, and the other half for 3 days. The hulls, endosperm, and germ were manually separated. Each fraction was air-dried at ambient temperature and ground with a coffee grinder (Salton/Maxim Housewares Inc., Mont. Prospect,Ill.). rGUS activity and the moisture content of each ground sample were determined. rGUS activity was determined using the assay described by Jefferson and Wilson (Jefferson, R. A.; Wilson, K. J. (1991). In The GUS Gene Fusion system. In “Plant Molecular Biology Manual”, Vol. 1, B14, (S. B. Gelven, R. A. Schilperoort and D. P. S. Verma, eds.). Kluwer Academic Publisher, Dordrecht, Belgium. pp.1–33). One unit (U) of rGUS activity was defined as the amount of enzyme that converts one nmole of p-nitrophenyl β-D-glucuronide per minute at pH 7.0 and 37° C. Storage and Heat Stability
Purification Recombinant GUS was purified from ground kernels, full-fat germ and defatted germ using a three-step chromatography. Ground corn kernels (75 g), full-fat germ (7.5 g), and defatted germ (7.5 g) samples were extracted with 50 mM NaPi buffer pH 7.5 (buffer A) at 1:4 or 1:10 solid-to-liquid ratio as described in the previous section. Fifteen ml of DEAE-Toyopearl (Supelco, Bellefonte, Pa.) resin in buffer A were added to the centrifuged and filtered extract to adsorb (capture) rGUS. The slurry was mixed with a magnetic stirrer for 15 min at ambient temperature, filtered through a funnel-supported No. 1 filter paper, and washed with 400 ml of buffer A. The washed DEAE resin was packed into a glass column with an inside diameter of 1.5 cm. The adsorbed rGUS was eluted with 0.3 M NaCl in buffer A. The fractions containing rGUS activity were combined, ammoniumsufate (AS) was added to a final concentration of 1 M, and the solution was filtered through a 0.45 μfilter. […]

Data set [3] is described as follows: Large-scale custom milling of transgenic corn, rGUS activity retention. Format: physicochemical. The following applies: 1,000 kg corn milled, less than 1 min at 90° C., bagged at about 50° C., 2 h at 30° C., overnight at 10° C. The protocol:
The heat stability results obtained in the laboratory were validated on a large scale. During the processing of 1,000 kg of transgenic corn in a custom-milling plant located in Grinnell, Iowa, the corn was exposed for a short time (less than 1 min) to 90° C. The milled corn was bagged at approximately 50° C., transported at ambient temperature (30° C.) for two hours to Iowa State University, and then stored overnight at 10° C. before the rGUS activity was determined.

Data set [4] can be described thus: Storage stability of rGUS in flaked corn kernels. Type of data set: physicochemical. The method, then: Dry corn kernels (12% moisture, 500 g per batch) were cracked using a roller mill (Ferrel-Ross, Oklahoma City, Okla.), then flaked to 0.3 mm thickness using Roskamp flaking rolls (Model K, Roskamp Mfg., Inc., Waterloo, Iowa.). Seven 500-gram batches of flaked corn kernels were placed in zip-lock bags and stored at each of four different temperatures for up to 95 days. The storage stability study was performed in triplicate; three 50-g samples per time and per temperature. To determine the activity of GUS, a 20-g sample was taken from each of the three 50-g bags at the specified time and extracted with 200 ml of 20 mM Tris-HCl pH 7.9 containing 500 mM NaCl and 1 mM CaCl2. Extraction was carried out using a paddle mixer at ambient temperature for 30 min.

Data set [5] is described as follows: Heat stability of rGUS in whole corn kernels. Format: physicochemical.

B1: rGUS: recombinant β-glucuronidase produced in transgenic corn kernels (protein)
chain: MLRPVETPTREIKKLDGLWAFSLDRENCGIDQRWWESALQESRAIAVPGSFNDQFADADIRNYAGNVWYQREVFIPKGWAGQRIVLRFDAVTHYGKVWVNNQEVMEHQGGYTPFEADVTPYVIAGKSVRITVCVNNELNWQTIPPGMVITDENGKKKQSYFHDFFNYAGIHRSVMLYTTPNTWVDDITVVTHVAQDCNHASVDWQVVANGDVSVELRDADQQVVATGQGTSGTLQVVNPHLWQPGEGYLYELCVTAKSQTECDIYPLRVGIRSVAVKGEQFLINHKPFYFTGFGRHEDADLRGKGFDNVLMVHDHALMDWIGANSYRTSHYPYAEEMLDWADEHGIVVIDETAAVGFNLSLGIGFEAGNKPKELYSEEAVNGETQQAHLQAIKELIARDKNHPSVVMWSIANEPDTRPQGAREYFAPLAEATRKLDPTRPITCVNVMFCDAHTDTISDLFDVLCLNRYYGWYVQSGDLETAEKVLEKELLAWQEKLHQPIIITEYGVDTLAGLHSMYTDMWSEEYQCAWLDMYHRVFDRVSAVVGEQVWNFADFATSQGILRVGGNKKGIFTRDRKPKSAAFLLQKRWTGMNFGEKPQQGGKQ
As for B1, in data set [1] (1% (v/v) SDS and 2% (v/v) ME in extraction buffer), the “rGUS activity after extraction with detergent” value is “inactive”. Further, the “rGUS activity after corn oil extraction” value in data set [1] (germ defatted with hexane (˜60° C.)) is “did not affect the activity of rGUS”. Further, the Specification activity is recorded as 36,000 U/mg in data set [2] (purified from defatted germ, solid-to-liquid ratio 1:10); 36,000 U/mg in data set [2] (purified from flaked corn, solid-to-liquid ratio 1:4); 45,000 U/mg in data set [2] (purified from full-fat germ, solid-to-liquid ratio 1:10). Also, the rGUS activity loss entry in data set [3] is “no loss of rGUS activity”; in data set [4] (flaked kernels at −29, 10, or 25° C. for up to 2 weeks), “no significant loss of rGUS activity”. In addition, the “loss of rGUS activity” value in data set [4] (flaked kernels at 10° C. for up to 3 months) worked out at 23%; in data set [4] (flaked kernels at −29° C. for up to 3 months), 14%. Besides, the “loss of initial GUS activity” value in data set [4] (flaked kernels at 25° C. after three weeks (sample spoilage)) was 13%. In addition, the “loss of initial rGUS activity” value came out at 23% in data set [4] (flaked kernels at 37° C. for one week) and 60% in data set [5] (kernels, 70° C. for 8 hours). In addition, the “rGUS activity after heating” value is reported as “fully retained” in data set [5] (kernels, 50° C. for up to six days); “did not significantly affect rGUS activity” in data set [5] (kernels, 70° C. for one hour); “did not affect rGUS activity” in data set [5] (whole kernels, 50° C. for up to eight hours). Further, the “residual rGUS activity” value is listed as “No residual rGUS activity” in data set [5] (kernels, 90° C. for one hour) and “No residual rGUS activity” in data set [5] (kernels, 125° C. for 10 minutes).
